One data set addresses T1, Apaf-1 (Homo sapiens, UniProt O14727).
T1 sequence (O14727 1-1248): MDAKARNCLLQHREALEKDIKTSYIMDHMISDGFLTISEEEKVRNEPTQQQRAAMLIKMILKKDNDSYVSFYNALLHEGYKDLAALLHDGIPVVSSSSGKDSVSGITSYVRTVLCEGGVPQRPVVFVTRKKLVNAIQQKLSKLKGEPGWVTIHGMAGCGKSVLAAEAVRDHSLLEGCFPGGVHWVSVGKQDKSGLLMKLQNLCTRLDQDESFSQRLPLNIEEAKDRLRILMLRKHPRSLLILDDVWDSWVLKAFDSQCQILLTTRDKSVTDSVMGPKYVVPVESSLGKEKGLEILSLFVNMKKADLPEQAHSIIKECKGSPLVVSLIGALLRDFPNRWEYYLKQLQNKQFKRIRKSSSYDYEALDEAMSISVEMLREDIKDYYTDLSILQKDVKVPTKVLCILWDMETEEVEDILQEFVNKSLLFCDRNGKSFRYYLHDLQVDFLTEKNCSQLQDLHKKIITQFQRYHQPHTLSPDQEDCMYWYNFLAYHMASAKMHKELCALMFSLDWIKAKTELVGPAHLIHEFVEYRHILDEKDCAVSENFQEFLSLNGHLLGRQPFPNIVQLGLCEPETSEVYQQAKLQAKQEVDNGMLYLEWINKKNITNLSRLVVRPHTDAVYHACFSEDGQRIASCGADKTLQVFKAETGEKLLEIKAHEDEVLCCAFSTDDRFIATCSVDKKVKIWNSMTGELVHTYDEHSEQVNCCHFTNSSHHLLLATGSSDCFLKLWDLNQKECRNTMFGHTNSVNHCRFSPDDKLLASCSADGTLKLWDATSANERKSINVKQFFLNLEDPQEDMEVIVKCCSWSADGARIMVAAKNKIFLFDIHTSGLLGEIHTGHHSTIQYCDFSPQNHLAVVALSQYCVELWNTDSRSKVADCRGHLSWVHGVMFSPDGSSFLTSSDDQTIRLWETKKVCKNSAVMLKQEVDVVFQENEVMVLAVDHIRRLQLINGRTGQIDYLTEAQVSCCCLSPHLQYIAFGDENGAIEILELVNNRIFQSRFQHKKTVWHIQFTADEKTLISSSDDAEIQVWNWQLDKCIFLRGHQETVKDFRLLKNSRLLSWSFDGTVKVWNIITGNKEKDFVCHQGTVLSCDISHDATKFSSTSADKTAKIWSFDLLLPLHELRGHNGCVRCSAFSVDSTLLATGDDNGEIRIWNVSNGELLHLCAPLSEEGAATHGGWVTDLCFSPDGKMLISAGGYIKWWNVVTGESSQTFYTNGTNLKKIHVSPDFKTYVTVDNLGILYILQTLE
Conditions: observed by others, explained by the structure; cited from earlier work.

The target in data set [1] is T2, soluble Apaf-1 fragment (residues 1-591) (Homo sapiens, UniProt O14727).
T2 construct: Leu-Glu-His6 (C); made in house; host or cells: Escherichia coli BL21(DE3), pET29
T2 sequence (O14727 1-591): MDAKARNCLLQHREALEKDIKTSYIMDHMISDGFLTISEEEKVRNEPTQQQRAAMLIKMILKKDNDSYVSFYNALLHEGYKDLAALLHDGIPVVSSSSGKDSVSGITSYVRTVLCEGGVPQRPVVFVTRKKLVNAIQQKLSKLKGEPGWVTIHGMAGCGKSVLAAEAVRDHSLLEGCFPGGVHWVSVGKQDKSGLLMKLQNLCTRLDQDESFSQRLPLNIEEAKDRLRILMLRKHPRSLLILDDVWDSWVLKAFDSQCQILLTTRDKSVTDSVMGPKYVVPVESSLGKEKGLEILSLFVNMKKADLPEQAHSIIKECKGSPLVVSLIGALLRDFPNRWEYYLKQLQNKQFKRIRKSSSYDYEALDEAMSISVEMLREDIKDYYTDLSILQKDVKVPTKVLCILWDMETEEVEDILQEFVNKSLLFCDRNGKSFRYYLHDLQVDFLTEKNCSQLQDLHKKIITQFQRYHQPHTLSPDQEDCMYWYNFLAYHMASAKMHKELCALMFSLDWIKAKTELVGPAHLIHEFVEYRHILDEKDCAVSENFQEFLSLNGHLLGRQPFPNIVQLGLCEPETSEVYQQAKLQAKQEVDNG
Kind of data set: ATPase assay (TLC, conversion of (alpha-32P)ATP to ADP). The class given is biochemical. As for the experimental part:
ATPase activity was determined using a thin layer chromatography (TLC) assay designed to quantitatively measure the conversion of (alpha-^32P)ATP to ADP. Reactions were initiated by mixing the soluble Apaf-1 fragment at a final concentration of 2 micromolar with a solution containing 20 millimolar HEPES, pH 7.5, 10 millimolar DTT, 10 micromolar magnesium chloride, 0.1 micromolar (alpha-^32P)ATP, and 8 micromolar ATP. The reaction was incubated at room temperature for the indicated duration and then quenched by addition of an equal volume of developing solvent (1 molar formic acid, 0.5 molar LiCl). Samples were evaluated based on the differential mobility of ATP versus ADP on TLC using polyethyleneimine-cellulose F plates.

Data set [2] addresses T3, caspase-9 activation by the soluble Apaf-1 fragment (Homo sapiens, UniProt O14727).
T3 construct: Leu-Glu-His6 (C); made in house; host or cells: Escherichia coli BL21(DE3), pET29 (both proteins)
T3 sequence (O14727 1-591): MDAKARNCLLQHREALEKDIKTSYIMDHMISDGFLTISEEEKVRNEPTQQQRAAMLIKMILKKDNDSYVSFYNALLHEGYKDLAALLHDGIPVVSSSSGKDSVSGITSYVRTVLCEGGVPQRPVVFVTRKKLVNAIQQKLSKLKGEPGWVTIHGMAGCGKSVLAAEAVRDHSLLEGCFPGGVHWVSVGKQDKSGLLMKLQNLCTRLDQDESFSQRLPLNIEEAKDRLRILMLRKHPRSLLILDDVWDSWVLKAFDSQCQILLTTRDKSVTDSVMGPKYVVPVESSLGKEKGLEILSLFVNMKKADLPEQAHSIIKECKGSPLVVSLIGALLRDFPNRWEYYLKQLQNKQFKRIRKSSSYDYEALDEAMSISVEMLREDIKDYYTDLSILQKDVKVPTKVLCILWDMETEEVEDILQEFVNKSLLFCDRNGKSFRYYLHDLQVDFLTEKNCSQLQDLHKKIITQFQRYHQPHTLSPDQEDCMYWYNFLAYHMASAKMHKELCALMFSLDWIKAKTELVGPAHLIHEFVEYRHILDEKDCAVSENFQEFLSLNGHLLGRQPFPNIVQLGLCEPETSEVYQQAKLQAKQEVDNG
T3 sequence (P55211 1-315 partner limits assumed): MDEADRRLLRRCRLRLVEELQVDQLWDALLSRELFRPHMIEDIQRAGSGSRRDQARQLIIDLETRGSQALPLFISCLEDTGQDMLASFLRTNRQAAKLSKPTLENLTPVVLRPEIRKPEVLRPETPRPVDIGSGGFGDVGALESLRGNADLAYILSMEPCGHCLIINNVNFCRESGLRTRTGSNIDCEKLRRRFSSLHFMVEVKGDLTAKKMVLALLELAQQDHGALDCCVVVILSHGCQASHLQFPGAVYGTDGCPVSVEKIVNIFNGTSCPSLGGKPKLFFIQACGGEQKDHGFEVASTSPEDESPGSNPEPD
T3 sequence (P55211 331-416 partner limits assumed): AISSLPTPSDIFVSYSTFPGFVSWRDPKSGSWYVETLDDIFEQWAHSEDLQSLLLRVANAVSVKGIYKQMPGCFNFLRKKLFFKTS
In words: Caspase-9 activation assay (fluorogenic, LEHD-AMC). The class given is biochemical. Conditions: absence of ATP and of the apoptosome. As for the experimental part:
A fluorogenic assay was developed to monitor caspase-9 activation by the soluble Apaf-1 fragment. […] Then, caspase-9 and Apaf-1 were added to a final volume of 200 microliter and final concentrations of 0.2 micromolar and 2 micromolar, respectively. After incubation for 5 minutes at room temperature, the caspase-9 substrate LEHD-AMC (a tetrapeptide coupled to 7-amino […]) was added to the reaction at a final concentration of 200 micromolar. The conversion of the fluorogenic substrate was then measured using a Hitachi F2500 fluorescence spectrophotometer with an excitation wavelength of 380 nanometers and a fluorescence detection wavelength of 440 nanometers.

The format of data set [3] is physicochemical, E. coli. How it is done: Preferably, solubility of the fragment is assessed in a lysate of a bacterial culture used to produce the fragment at a concentration of at least 1 milligram per liter of bacterial culture.
All constructs for protein expression were generated using a standard PCR-based cloning strategy, and the identity of individual clones was verified by double-stranded plasmid sequencing. A soluble Apaf-1 fragment (residues 1-591, sequence (SEQ ID NO: 1) shown in FIG. 1) was over-expressed in Escherichia coli strain BL21(DE3) using plasmid vector pET29 having the nucleotide sequence described by Jiang et al. (2000, J. Biol. Chem. 275:31199-31203) operatively ligated therein. The coding sequence included an additional sequence encoding eight amino acid residues at its carboxy-terminal end (i.e., linked to residue 591 in the translated protein). These residues (Leu-Glu-His6) included a nickel-binding hexa-histidine sequence used for metal affinity chromatographic purification of the expressed protein. Soluble Apaf-1 was purified from the cell lysate using a Ni-NTA (nitrilotriacetic acid-ligated nickel; Qiagen) chromatography column. Dithiothreitol (DTT) and ethylenediamine tetraacetic acid (EDTA) were added to the eluted fraction in final concentrations of 5 millimolar each. After incubation for 30 minutes on ice, the protein solution was applied to an anion-exchange column (Source-15Q, Pharmacia) for further purification.

Entries after “also recorded” stand apart in the source; their conditions may differ.

As to `Nc1nc2c(ncn2[C@@H]2O[C@H](COP(=O)(O)OP(=O)(O)OP(=O)(O)O)[C@@H](O)[C@H]2O)c(=O)[nH]1` [GTP], at Apaf-1, the “activation of Apaf-1” value is on record as “does not activate Apaf-1”.

B1: 1-591: soluble human Apaf-1 fragment, residues 1-591 (SEQ ID NO: 1), expressed in E. coli BL21(DE3) with C-terminal Leu-Glu-His6 (protein, listed as Homo sapiens)
chain: MDAKARNCLLQHREALEKDIKTSYIMDHMISDGFLTISEEEKVRNEPTQQQRAAMLIKMILKKDNDSYVSFYNALLHEGYKDLAALLHDGIPVVSSSSGKDSVSGITSYVRTVLCEGGVPQRPVVFVTRKKLVNAIQQKLSKLKGEPGWVTIHGMAGCGKSVLAAEAVRDHSLLEGCFPGGVHWVSVGKQDKSGLLMKLQNLCTRLDQDESFSQRLPLNIEEAKDRLRILMLRKHPRSLLILDDVWDSWVLKAFDSQCQILLTTRDKSVTDSVMGPKYVVPVESSLGKEKGLEILSLFVNMKKADLPEQAHSIIKECKGSPLVVSLIGALLRDFPNRWEYYLKQLQNKQFKRIRKSSSYDYEALDEAMSISVEMLREDIKDYYTDLSILQKDVKVPTKVLCILWDMETEEVEDILQEFVNKSLLFCDRNGKSFRYYLHDLQVDFLTEKNCSQLQDLHKKIITQFQRYHQPHTLSPDQEDCMYWYNFLAYHMASAKMHKELCALMFSLDWIKAKTELVGPAHLIHEFVEYRHILDEKDCAVSENFQEFLSLNGHLLGRQPFPNIVQLGLCEPETSEVYQQAKLQAKQEVDNG
modifications: C-terminal Leu-Glu-His6 tag
In the case of B1, the “ATPase activity (appearance of ADP on TLC)” value in data set [1] (2 micromolar fragment, magnesium present, room temperature, FIG. 6A) is listed as “exhibited ATPase activity”. In addition, the “ATPase activity on incubation with EDTA” value in data set [1] (EDTA added (magnesium removed), FIG. 6A lane 3) was “abrogation of the observed ATPase activity”. For the same molecule, the “catalytic activity of caspase-9 in the presence of Apaf-1” value in data set [2] is “significantly and reproducibly elevated; also recorded: significantly improved the caspase catalytic activity”. In data set [3], the Solubility result is “++++”; the “solubility and solution behavior (in words)” value is “good solubility and solution behavior”.

The values above are taken from patent US7432093B2, “Soluble, functional apoptotic protease-activating factor 1 fragments” (The Trustees of Princeton University, priority 2004, dated 2008).
